Test results from PMC8885691, “Leveraging the multivalent p53 peptide-MdmX interaction to guide the improvement of small molecule inhibitors” (Nature Communications, 2022).

Target: p53-binding domain of human MdmX (N-MdmX, amino acids 22-110) (human) (UniProt O15151)
Experiment: ITC; ITC-200 at 25 °C; 19 injections of 2.0 µL of ~0.2 mM ligand into ~10–20 µM protein in the cell; one-set-of-binding-sites model

Chain of p53-binding domain of human MdmX (N-MdmX, amino acids 22-110) (human) (O15151 22-110): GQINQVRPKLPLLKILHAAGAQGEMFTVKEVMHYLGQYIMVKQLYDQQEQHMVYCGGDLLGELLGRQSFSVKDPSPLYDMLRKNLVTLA

A Kd of 360 nM was found for “p53 transactivation domain peptide (p53p)” in this work.
